± gives the half width of the 95% confidence interval.
Legend:
[1] = folding stability dG unfold (combined trypsin and chymotrypsin); higher = more stable
Procedure, shortened: (§1)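 K50 was inferred by Bayesian fitting of sequencing counts obtained after protease digestion of designed mini-proteins. Unfolding free energy was derived by comparison with a sequence-predicted unfolded-state K50 and a shared folded-state K50, for each protease or both combined. The mini-proteins were under 80 residues, had no cysteine, were carried in a PA-tagged cDNA display construct, and were kept only if AlphaFold2 dimer inter-PAE exceeded 15.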

[2] = folding stability dG unfold from chymotrypsin proteolysis; higher = more stable
Procedure, shortened: as §1

[3] = folding stability dG unfold from trypsin proteolysis; higher = more stable
Procedure, shortened: as §1

Sequence	folding stability dG unfold [1]	folding stability dG unfold [2]	folding stability dG unfold [3]
SAGGSAGGSAPKILIVEDEKTGKLYAFVYDKDTKELYVAEFTYDKKTKKLTVKIKKVSLEDLSAGGSAGGSA [r18_505_TrROS_Hall]	4.19 ± 0.26 kcal/mol	4.67 ± 0.18 kcal/mol	2.88 ± 0.09 kcal/mol
SAGGSAGGSAGGALEEKAKEIIEELKKKGIKVKEVKTSPNEITITFEDGSTKKIPIINGSAGGSAGGSAGGS [r10_169_JUSTAS]	2.66 ± 0.1 kcal/mol	2.54 ± 0.16 kcal/mol	2.55 ± 0.12 kcal/mol
SAGGSAGGSAGKTVVIEIKGMSKEQVLNLIKELAEKYPNSKIIITNENGEKIEINVKDLKSAGGSAGGSAGG [r11_541_TrROS_Hall]	2.85 ± 0.22 kcal/mol	3.34 ± 0.12 kcal/mol	1.95 ± 0.13 kcal/mol
SAGMIKVEVVVPPEDPSKPPSEEELRALAEEVVRELGLDPAKHPIEIKREVVDPEKGVLRYTITVKLPSAGG [r19_244_JUSTAS]	2.96 ± 0.11 kcal/mol	2.87 ± 0.069 kcal/mol	3.09 ± 0.092 kcal/mol
SAGGSWLPPGMWIISISIKWEMREMTFSPNGQPEMEMRLEIDIQVIKIPPPPPPPKEDAKNPNGKWSAGGSA [r2_495_TrROS]	1.66 ± 0.35 kcal/mol	2.22 ± 0.3 kcal/mol	0.946 ± 0.15 kcal/mol
SAGGSAGGSGSSSLLEETTDASGVRHLLTLVRLPGGKVLLVTTTVYPSGESTTTTEETDGSLLSAGGSAGGS [r12_995_JUSTAS]	2.11 ± 0.059 kcal/mol	1.53 ± 0.036 kcal/mol	2.58 ± 0.06 kcal/mol
SAGGSAGGPLYRVLILLKKPNGEPLLLPLVAEDPEKALELAERLRKEYEEKGYELVAVEIYEFPSAGGSAGG [r6_869_TrMRF]	5.22 ± 0.22 kcal/mol	5.26 ± 0.13 kcal/mol	4.37 ± 0.22 kcal/mol
SAGGSAGGSASSVVTPISHPDGRTGTKVTLPNGTVIEFIFYPDGTIIEINHSNNTTTVTPLVSAGGSAGGSA [r18_285_JUSTAS]	1.53 ± 0.031 kcal/mol	1.55 ± 0.017 kcal/mol	1.44 ± 0.04 kcal/mol
SAGGSAGGSAGEKDLPVIEVEFPFPSSFPLPLIKKFAEPFGVKKVEFFEDGTVKVLYVLDSAGGSAGGSAGG [r11_961_TrMRF]	0.806 ± 0.13 kcal/mol	0.984 ± 0.14 kcal/mol	0.416 ± 0.1 kcal/mol
SLKPGEWVMFMFTIPITIRITKDDLPPGWKIKEVTIRIYVMFLFRVDPDGNFKILSFNIMIEIEVKYEPDSA [r9_747_TrROS]	4.98 ± 0.11 kcal/mol	5.1 ± 0.081 kcal/mol	4.52 ± 0.13 kcal/mol
SAGGLDAVLAELAKKPPGVTVELPVELPDGSRVVLTATWPAETSSPVITVKYYDPNRPEAVEEETFTVTSAG [r5_35_JUSTAS]	1.46 ± 0.12 kcal/mol	1.47 ± 0.049 kcal/mol	1.34 ± 0.08 kcal/mol
SAGGEKPKEVEIEEVVVKNEETGEEVRFFRIRDKETDEWYVLAVVRNKDGEEKVVKMSAEEAKKLLESAGGS [r8_421_TrROS_Hall]	3.59 ± 0.14 kcal/mol	3.7 ± 0.044 kcal/mol	3.13 ± 0.065 kcal/mol
SAGGTLEEFARDLAKELAKENGGKNVPFEIEIPVKMEWYPSPDGDPEPIMTHPMRIRIQFQIPPGQPSAGGS [r16_156_TrROS]	1.08 ± 0.15 kcal/mol	1.53 ± 0.14 kcal/mol	0.389 ± 0.11 kcal/mol
SAGGPGMEPIGEIKLDDGVTIEVWRPPNGWYRAKVEFPDNGKQINYPFNPNMSFEQAKDQIKELARKLSAGG [r13_624_TrROS]	1.52 ± 0.36 kcal/mol	1.86 ± 0.15 kcal/mol	0.519 ± 0.13 kcal/mol
SAGGSAGGSAGGSDKDPDKMKPKPVFEMEIVTYEWEKDGDGDWEPLSVEVQRIRVYAMDSAGGSAGGSAGGS [r4_288_TrROS]	4.19 ± 0.19 kcal/mol	4.51 ± 0.23 kcal/mol	3.13 ± 0.14 kcal/mol
LEIIEKLKFPGYKITSVSIQRTNNKVTIVIHFRHPKEYYMISLEIDPPNGGIKITEVHPIKPGESMDDMMNS [r1_383_TrROS]	3.43 ± 0.33 kcal/mol	3.75 ± 0.088 kcal/mol	3.09 ± 0.15 kcal/mol
SAGGWITPELIEEIAKTIAEENPENGKEVPIEVVIPFPNSVIKIEIEFDPSNGKIEIEDIKVIPPNDLSAGG [r13_37_TrROS]	1.16 ± 0.28 kcal/mol	1.5 ± 0.12 kcal/mol	0.67 ± 0.12 kcal/mol
SAGGIKIERDPNMWKFEIPLPNKPLTIHISQSDGRYTIAIYENGKPIRTVPFPGPVDDAIERALKKLSAGGS [r8_276_TrROS]	1.93 ± 0.054 kcal/mol	2.05 ± 0.032 kcal/mol	1.66 ± 0.034 kcal/mol
SAGGSAGGNLTLPPDNIKRIWHVGDGHWLIKMDDNVLMINPGNGKIQTVKKEDADKLPPGDPFFSAGGSAGG [r6_890_TrROS]	0.0115 ± 0.15 kcal/mol	0.0704 ± 0.19 kcal/mol	-0.473 ± 0.2 kcal/mol
SAGGTMTIEAWVKYKDMTPEEMREQAKEIAENIMNMMRQRGFPIKKIEVDVEQDPGNGWVQVTIEIEFSAGG [r13_212_TrROS]	4.24 ± 0.18 kcal/mol	4.62 ± 0.13 kcal/mol	3.45 ± 0.15 kcal/mol
SAELIEALKKAGYRIKIEVEVTEVRVVRNEDGELKVEAKIKVKIEIEPLPPPPPPLSLEDLLDKNGKLVSAG [r14_569_TrROS_Hall]	2.95 ± 0.56 kcal/mol	3.3 ± 0.13 kcal/mol	3.26 ± 0.41 kcal/mol

Sequence	folding stability dG unfold [1]	folding stability dG unfold [2]	folding stability dG unfold [3]
SPVKWGEEKTYTYPFPDNPNYRIKIKVHVYKDPENGRPYVRMNIEVYNNGKPRKYNINMPVDQLKDLLQFSA [r9_71_TrROS]	2.57 ± 0.21 kcal/mol	2.66 ± 0.076 kcal/mol	2.22 ± 0.039 kcal/mol
SAGGSAGGSAGKKLKPFKVVEVKEPVKEGDVIEVENEATGELYRFTVVNGEIKIEKVKLDSAGGSAGGSAGG [r11_94_TrROS_Hall]	0.365 ± 0.29 kcal/mol	0.442 ± 0.21 kcal/mol	0.225 ± 0.053 kcal/mol
SAGPTFEIVSVEEVDGKTYIRIRLPNGRIVTARITEVKRLGPDGKLYIKVEPGMSEEELKALLPPEVLKSAG [r5_462_TrROS_Hall]	2.63 ± 0.042 kcal/mol	2.825 ± 0.02 kcal/mol	2.29 ± 0.053 kcal/mol
SAGGSAELPSLGAEITVTEDPNRNTYTVTVPLVAPDGAPVGTLTVPFSSLEEARAFLRAQGLGELLSAGGSA [r15_127_JUSTAS]	2.773 ± 0.016 kcal/mol	2.836 ± 0.01 kcal/mol	2.59 ± 0.031 kcal/mol
SAGMKYTAEVKVKEKDKEIDVTVSDDATFTDPEGKETTFKIGSEEELKKALEEIFPEKYPYEILSVKVLSAG [r14_41_JUSTAS]	-0.0975 ± 0.2 kcal/mol	0.156 ± 0.18 kcal/mol	-0.65 ± 0.47 kcal/mol
SDPDAKLLPATFTFRDPLTGEEVTVEVTVYETSGYLLAPAKVTVTLPTKPRTLTATLLVDENGNVHLFVSSA [r9_1015_TrMRF]	3.73 ± 0.17 kcal/mol	4.31 ± 0.08 kcal/mol	2.82 ± 0.2 kcal/mol
SAGGSAGGSAGGLPKPVTVTLSRPEGGETLTLTFPSGTTPEEVRAAVEAEPDLSILSISSSAGGSAGGSAGG [r7_624_JUSTAS]	1.1 ± 0.059 kcal/mol	0.892 ± 0.063 kcal/mol	1.2 ± 0.074 kcal/mol
SAGGEVKPGDKVKVRLRLRVRLEDGEEVEVELEFVEVEVVPLSEEEKEKLEELKKKKPEVDPKNKELLSAGG [r13_330_TrROS_Hall]	1.81 ± 0.3 kcal/mol	2.24 ± 0.11 kcal/mol	1.61 ± 0.13 kcal/mol
SAGGSAGGSAGGMTVLETEVTTLPNGVVKTTTLYKDPSTGALHTVTEEVYVPLGETALLSAGGSAGGSAGGS [r10_72_JUSTAS]	0.523 ± 0.11 kcal/mol	0.15 ± 0.15 kcal/mol	0.716 ± 0.022 kcal/mol
SAVVLKEPGPVTTVVTTDPATGVTTTVTTDPSAGTTTVTTTDPASAAVTTTTYTTLPDGTPVPTTTTTPASA [r9_1073_JUSTAS]	1.05 ± 0.038 kcal/mol	0.86 ± 0.032 kcal/mol	1.22 ± 0.031 kcal/mol
SAGGGSMIKKTLEEEPVGESTVSKSTVTLPDGTPVSVTSTTTKVGNTWTTTTTTNYGSSTTTTTTTTSAGGS [r16_476_JUSTAS]	0.156 ± 0.15 kcal/mol	0.419 ± 0.11 kcal/mol	-0.638 ± 0.21 kcal/mol
SAGGSAMTIEIEAPVPAGVEVDATALFVTPDGYLYLAEVRSVGPGWARITIPVYRFDDNLDDPDFLSAGGSA [r15_909_TrMRF]	2.17 ± 0.051 kcal/mol	2.19 ± 0.042 kcal/mol	2.04 ± 0.045 kcal/mol
SSSGPKTELITLKYEEPVRSPEEAEARARALAEEIAERTGAPIEVDVEIEYDPETGKAYVTVPVRVLLPDSA [r9_741_JUSTAS]	0.727 ± 0.1 kcal/mol	0.124 ± 0.16 kcal/mol	1.14 ± 0.037 kcal/mol
SAGGSAGGKKTVEIEMTVDELLAALKSLSEEELKNVKIIGKDGKEFTLEDLEKNPGKIYKIEVKSAGGSAGG [r6_428_TrROS_Hall]	1.82 ± 0.16 kcal/mol	2.23 ± 0.074 kcal/mol	0.694 ± 0.07 kcal/mol
SAGGSAKTVTVEVTLEDGTKITVTVPEDMSEEERKALAQELAEELREKLRQLRELEKEGKEVRIEPSAGGSA [r15_704_TrROS_Hall]	2.23 ± 0.051 kcal/mol	2.72 ± 0.042 kcal/mol	1.02 ± 0.023 kcal/mol
SAGGSFPIADVKEVKVEAYPETNTAKVPFTFPNGVTAVADAYLDPVTGRPVLVVRTPDGRLVVLPLSAGGSA [r2_490_TrMRF]	1.3 ± 0.094 kcal/mol	1.15 ± 0.12 kcal/mol	1.43 ± 0.032 kcal/mol
SAGGSAGGSANYMIKITIEYTPPNGKKEEVEVTVPGMPIDQLLNNLPPEYPVEIKDIEIYPGSAGGSAGGSA [r18_32_TrROS]	0.326 ± 0.11 kcal/mol	0.154 ± 0.12 kcal/mol	0.251 ± 0.024 kcal/mol
SAGGSAGGSASMNVLVVRTKPDGTPEVTEVETGDPEKAKEEIAKRSNVTTPEGTVTVELTGVSAGGSAGGSA [r18_457_JUSTAS]	-0.961 ± 0.46 kcal/mol	-1.06 ± 0.27 kcal/mol	-1.02 ± 0.13 kcal/mol
MEEEEKKKAETPEIPEEVAREKALEVARELGLEEIEEIEVLSASPEGYVTVRITLPTGGEVEITIPISELES [r1_435_JUSTAS]	2.54 ± 0.18 kcal/mol	2.76 ± 0.08 kcal/mol	2.01 ± 0.13 kcal/mol
SAGGRFYFEAKDPSITPEELRAALEEAFGVKFHRIKPVEPLPDGMLYEVEIPEIGGHFDVSAEEIEKLLSAG [r5_550_TrMRF]	1.56 ± 0.16 kcal/mol	1.78 ± 0.077 kcal/mol	1.27 ± 0.053 kcal/mol
SAGGAKITVDDNKITIELPLPNGKPAGSINEPLPDGSSRILVKFPDFVLHLEITPEGIKIASIDNNKDSAGG [r13_619_TrMRF]	1.51 ± 0.22 kcal/mol	1.77 ± 0.064 kcal/mol	1.27 ± 0.068 kcal/mol

Reference: the supplement of paper PMC12764529
